According to US20240358855A1 (UNIVERSITY OF UTAH RESEARCH FOUNDATION, published 2024):

T1: CRP (UniProt P02741 19-224)
T1 construct: Bought protein coated on plates; also called C reactive protein
T1 sequence (looked up): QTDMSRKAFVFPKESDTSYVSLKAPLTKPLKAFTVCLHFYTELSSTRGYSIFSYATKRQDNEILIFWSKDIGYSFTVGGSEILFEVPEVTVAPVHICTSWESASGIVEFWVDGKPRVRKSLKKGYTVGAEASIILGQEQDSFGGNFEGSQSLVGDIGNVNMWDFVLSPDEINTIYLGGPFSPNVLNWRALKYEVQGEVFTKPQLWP


What was measured:
C3 convertase, C3bBb = C3 convertase, C3bBb (UniProt P01024 23-1663; P00751 260-764, limits assumed); assay: cell-based or functional assay
C3 convertase, C3bBb, sequence (P01024 23-1663 limits assumed, chain 1 of 2): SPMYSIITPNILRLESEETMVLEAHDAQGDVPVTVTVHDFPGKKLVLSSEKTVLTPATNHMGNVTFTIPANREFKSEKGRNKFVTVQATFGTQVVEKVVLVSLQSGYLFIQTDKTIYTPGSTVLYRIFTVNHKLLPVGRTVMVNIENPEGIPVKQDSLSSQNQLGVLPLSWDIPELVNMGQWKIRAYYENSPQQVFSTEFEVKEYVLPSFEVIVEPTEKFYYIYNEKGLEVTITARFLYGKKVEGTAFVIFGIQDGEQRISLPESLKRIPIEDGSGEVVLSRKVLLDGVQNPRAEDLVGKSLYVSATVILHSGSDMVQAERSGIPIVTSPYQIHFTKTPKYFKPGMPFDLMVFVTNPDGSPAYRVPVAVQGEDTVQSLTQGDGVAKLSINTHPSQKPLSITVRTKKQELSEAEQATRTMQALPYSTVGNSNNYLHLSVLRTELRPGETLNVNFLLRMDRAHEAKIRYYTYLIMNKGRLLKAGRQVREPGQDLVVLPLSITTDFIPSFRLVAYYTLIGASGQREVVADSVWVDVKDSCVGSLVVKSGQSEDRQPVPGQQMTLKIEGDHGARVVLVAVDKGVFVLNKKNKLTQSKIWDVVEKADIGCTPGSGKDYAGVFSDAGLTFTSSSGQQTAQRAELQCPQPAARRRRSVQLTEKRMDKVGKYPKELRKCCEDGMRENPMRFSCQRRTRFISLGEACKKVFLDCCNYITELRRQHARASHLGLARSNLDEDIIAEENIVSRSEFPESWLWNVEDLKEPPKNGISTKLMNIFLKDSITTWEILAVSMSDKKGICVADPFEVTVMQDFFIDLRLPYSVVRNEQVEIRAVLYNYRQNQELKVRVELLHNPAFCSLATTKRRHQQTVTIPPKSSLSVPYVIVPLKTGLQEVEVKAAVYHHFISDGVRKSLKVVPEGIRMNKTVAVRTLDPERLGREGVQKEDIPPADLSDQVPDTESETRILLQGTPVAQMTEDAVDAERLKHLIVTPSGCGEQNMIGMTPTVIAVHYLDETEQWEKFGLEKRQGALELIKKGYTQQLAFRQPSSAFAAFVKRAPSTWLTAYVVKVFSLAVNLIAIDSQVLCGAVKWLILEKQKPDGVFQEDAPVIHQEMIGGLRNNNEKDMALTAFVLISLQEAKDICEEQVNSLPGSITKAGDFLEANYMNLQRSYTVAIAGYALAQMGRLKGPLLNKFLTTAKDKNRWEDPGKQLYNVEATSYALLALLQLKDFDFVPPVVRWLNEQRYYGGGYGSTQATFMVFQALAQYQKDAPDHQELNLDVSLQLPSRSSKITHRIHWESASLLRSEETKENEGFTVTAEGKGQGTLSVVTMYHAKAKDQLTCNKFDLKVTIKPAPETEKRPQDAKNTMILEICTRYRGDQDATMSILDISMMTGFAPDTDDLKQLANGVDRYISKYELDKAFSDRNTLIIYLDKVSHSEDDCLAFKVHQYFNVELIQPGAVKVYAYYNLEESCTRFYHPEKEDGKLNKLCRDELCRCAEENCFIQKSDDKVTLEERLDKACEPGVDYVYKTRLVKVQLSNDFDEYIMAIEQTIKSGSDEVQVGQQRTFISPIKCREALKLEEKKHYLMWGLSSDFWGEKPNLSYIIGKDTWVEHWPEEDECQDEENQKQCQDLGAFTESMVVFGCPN
C3 convertase, C3bBb, sequence (P00751 260-764 limits assumed, chain 2 of 2): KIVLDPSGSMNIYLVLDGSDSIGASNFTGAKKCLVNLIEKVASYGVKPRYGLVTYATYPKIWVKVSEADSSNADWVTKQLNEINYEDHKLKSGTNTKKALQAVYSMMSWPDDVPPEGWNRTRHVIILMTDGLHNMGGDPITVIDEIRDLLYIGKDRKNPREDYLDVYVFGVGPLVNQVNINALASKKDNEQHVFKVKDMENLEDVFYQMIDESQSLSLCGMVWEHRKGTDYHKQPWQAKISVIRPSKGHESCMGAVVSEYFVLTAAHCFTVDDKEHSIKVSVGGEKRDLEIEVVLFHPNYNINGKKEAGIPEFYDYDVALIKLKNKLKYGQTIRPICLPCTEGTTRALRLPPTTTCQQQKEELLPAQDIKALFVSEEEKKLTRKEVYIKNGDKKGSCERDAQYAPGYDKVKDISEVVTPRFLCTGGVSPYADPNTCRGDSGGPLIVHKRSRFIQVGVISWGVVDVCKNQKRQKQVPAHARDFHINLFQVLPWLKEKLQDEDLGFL

CRP [1] = target: T1, CRP; assay: plate binding ELISA on coated CRP, HEK293 supernatant; fold vs (-) control pCTM395 supernatant
CRP [2] = target: T1, CRP; assay: plate binding ELISA on coated CRP, purified protein; fold vs CFHT-I62
C3b protein [3] = target: T2, C3b protein (UniProt P01024 23-667; P01024 749-1663, limits assumed); assay: plate binding ELISA on coated C3b, purified protein; fold vs CFHT-I62
T2 construct: domain: C3b; Bought protein coated on plates
T2 sequence (P01024 23-667 limits assumed, chain 1 of 2): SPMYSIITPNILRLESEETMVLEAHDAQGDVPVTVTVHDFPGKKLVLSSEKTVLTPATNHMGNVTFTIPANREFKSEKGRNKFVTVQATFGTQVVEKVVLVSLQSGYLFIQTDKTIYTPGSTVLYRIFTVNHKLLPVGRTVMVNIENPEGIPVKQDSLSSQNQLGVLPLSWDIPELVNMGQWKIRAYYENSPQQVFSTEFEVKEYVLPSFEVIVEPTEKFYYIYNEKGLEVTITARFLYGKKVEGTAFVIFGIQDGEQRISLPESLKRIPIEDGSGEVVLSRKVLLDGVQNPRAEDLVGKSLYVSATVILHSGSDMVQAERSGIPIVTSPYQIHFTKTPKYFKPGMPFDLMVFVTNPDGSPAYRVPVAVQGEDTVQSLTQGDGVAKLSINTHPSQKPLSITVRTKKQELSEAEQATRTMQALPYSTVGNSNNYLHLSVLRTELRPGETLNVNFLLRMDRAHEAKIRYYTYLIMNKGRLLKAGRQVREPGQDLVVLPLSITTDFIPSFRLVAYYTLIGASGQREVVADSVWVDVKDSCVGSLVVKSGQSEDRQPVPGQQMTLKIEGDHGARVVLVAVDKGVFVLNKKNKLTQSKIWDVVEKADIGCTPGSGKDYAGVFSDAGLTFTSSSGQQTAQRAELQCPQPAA
T2 sequence (P01024 749-1663 limits assumed, chain 2 of 2): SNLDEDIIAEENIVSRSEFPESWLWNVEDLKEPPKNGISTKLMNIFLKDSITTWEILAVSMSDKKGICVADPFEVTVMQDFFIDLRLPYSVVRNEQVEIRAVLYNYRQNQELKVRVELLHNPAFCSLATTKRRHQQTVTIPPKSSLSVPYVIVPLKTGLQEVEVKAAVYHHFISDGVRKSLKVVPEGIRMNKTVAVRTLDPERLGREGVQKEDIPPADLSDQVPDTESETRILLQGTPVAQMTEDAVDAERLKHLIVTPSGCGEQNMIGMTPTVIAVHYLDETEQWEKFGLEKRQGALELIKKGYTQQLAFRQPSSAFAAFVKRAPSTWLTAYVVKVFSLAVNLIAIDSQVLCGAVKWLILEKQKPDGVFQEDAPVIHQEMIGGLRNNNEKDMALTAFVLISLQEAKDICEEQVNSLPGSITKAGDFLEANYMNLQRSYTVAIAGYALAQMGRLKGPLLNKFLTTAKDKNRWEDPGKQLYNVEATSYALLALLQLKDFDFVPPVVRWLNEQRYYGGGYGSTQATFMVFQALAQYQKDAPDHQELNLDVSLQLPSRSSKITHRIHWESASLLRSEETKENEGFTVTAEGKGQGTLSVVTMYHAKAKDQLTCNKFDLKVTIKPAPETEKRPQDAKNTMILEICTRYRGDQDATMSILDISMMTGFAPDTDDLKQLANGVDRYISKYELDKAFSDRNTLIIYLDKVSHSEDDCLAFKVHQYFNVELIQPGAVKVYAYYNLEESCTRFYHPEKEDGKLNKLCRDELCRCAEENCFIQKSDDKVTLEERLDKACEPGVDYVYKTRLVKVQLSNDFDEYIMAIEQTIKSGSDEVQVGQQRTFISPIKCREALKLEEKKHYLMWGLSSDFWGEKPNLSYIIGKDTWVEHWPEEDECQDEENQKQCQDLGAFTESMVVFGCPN
Procedure: The C3b binding assay uses C3b protein (Complement Technology, Cat. #A114) diluted with 50 mM carbonate coating buffer (pH 9.6) at a final concentration of 50 μM. A total of 100 μl of C3b/carbonate solution was added to each well of a black MaxiSorp 96-wellmicroplate, covered and incubated overnight at 4° C. Blank control wells were incubated with carbonate coating buffer containing no C3b protein. Wells were washed 3 times with 300 μl PBST then blocked for 1 hour with reagent dilution buffer (1% BSA in PBS). Wells were washed again 3 times with 300 μl PBST. Dilutions of recombinant protective CFH, CFHT, oCFHT or supernatant from transiently transfected or transduced Cos-7 cells were prepared in reagent dilution buffer, added to wells in triplicate and incubated for 1 hour at room temperature. The plate was washed as above then incubated for 1 hour with anti-CFH/CFHT biotinylated aCTM87b antibody (OX-24, AbCam, Cat. #ab112197) at 1:1000 dilution. The plates were washed as above, then incubated for 1 hour with high sensitivity Streptavidin-HRP (Pierce Cat. #21130) at 1:10,000, washed as above then incubated for 5 minutes with SuperSignal ELISA Pico Chemiluminescent Substrate (Thermo Scientific, Cat. #37069) before detection using the BioTek Synergy4 plate reader. […]

C3b protein [4] = target: T2, C3b protein; assay: plate binding ELISA on coated C3b, HEK293 supernatant 25 ng/mL; fold vs (-) control pCTM395 supernatant
Procedure: The C3b binding assay uses C3b protein (Complement Technology, Cat. #A114) diluted with 50 mM carbonate coating buffer (pH 9.6) at a final concentration of 50 μM. A total of 100 μl of C3b/carbonate solution was added to each well of a black MaxiSorp 96-wellmicroplate, covered and incubated overnight at 4° C. Blank control wells were incubated with carbonate coating buffer containing no C3b protein. Wells were washed 3 times with 300 μl PBST then blocked for 1 hour with reagent dilution buffer (1% BSA in PBS). Wells were washed again 3 times with 300 μl PBST. […] The plate was washed as above then incubated for 1 hour with anti-CFH/CFHT biotinylated aCTM87b antibody (OX-24, AbCam, Cat. #ab112197) at 1:1000 dilution. The plates were washed as above, then incubated for 1 hour with high sensitivity Streptavidin-HRP (Pierce Cat. #21130) at 1:10,000, washed as above then incubated for 5 minutes with SuperSignal ELISA Pico Chemiluminescent Substrate (Thermo Scientific, Cat. #37069) before detection using the BioTek Synergy4 plate reader.
For C3b assays, 25 ng/mL of CFHT protein-containing supernatant was added to plates coated with C3b.

C3d ligand = target: T3, C3d ligand (UniProt P01024 1002-1303, limits assumed); assay: plate binding assay on C3d, purified protein; fold vs CFHT-I62
T3 construct: domain: C3d
T3 sequence (P01024 1002-1303 limits assumed): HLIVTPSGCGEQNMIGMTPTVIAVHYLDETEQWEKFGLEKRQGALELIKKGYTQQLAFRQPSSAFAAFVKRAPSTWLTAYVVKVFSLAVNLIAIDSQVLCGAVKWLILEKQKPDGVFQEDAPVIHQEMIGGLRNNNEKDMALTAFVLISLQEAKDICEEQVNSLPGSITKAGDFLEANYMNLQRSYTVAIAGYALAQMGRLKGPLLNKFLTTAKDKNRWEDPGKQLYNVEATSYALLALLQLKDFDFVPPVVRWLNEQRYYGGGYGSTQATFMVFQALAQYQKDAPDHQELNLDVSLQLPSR

CRP [5] = target: T1, CRP; assay: plate binding ELISA on coated CRP; fold vs (-) control pCTM395 supernatant
C3b protein [6] = target: T2, C3b protein; assay: plate binding ELISA on coated C3b; fold vs (-) control pCTM395 supernatant

Row | Binder | IC50, decay acceleration activity (DAA) assay (C3 convertase, C3bBb) [nM] | fold less active than unmodified CFHT, DAA assay (C3 convertase, C3bBb) [fold] | Fold Activity at Highest Dose (Relative to Control) (CRP [1]) [fold] | Fold Activity (Compared to CFHT-I62) (CRP [2]) [fold] | Fold Activity (Compared to CFHT-I62) (C3b protein [3]) [fold] | Fold Activity at Highest Dose (Relative to Control) (C3b protein [4]) [fold] | Fold Activity (Compared to CFHT-I62) (C3d ligand) [fold] | Fold Activity at Highest Dose (Relative to Control) (CRP [5]) [fold] | Fold Activity at Highest Dose (Relative to Control) (C3b protein [6]) [fold]
1 | His-mCFHT.1 (pCTM459) (other, not shown: small tags and cut ends, Protective CFHT with one additional C-terminal SCR7 domain; also called purified recombinant mCFHT.1) EDCNELPPRRNTEILTGSWSDQTYPEGTQAIYKCRPGYRSLGNIIMVCRKGEWVALNPLRKCQKRPCGHPGDTPFGTFTLTGGNVFEYGVKAVYTCNEGYQLLGEINYRECDTDGWTNDIPICEVVKCLPVTAPENGKIVSSAMEPDREYHFGQAVRFVCNSGYKIEGDEEMHCSDDGFWSKEKPKCVEISCKSPDVINGSPISQKIIYKENERFQYKCNMGYEYSERGDAVCTESGWRPLPSCEEKSCDNPYIPNGDYSPLRIKHRTGDEITYQCRNGFYPATRGNTAKCTSTGWIPAPRCTLKPCDYPDIKHGGLYHENMRRPYFPVAVGKYYSYYCDEHFETPSGSYWDHIHCTQDGWSPAVPCLRKCYFPYLENGYNQNYGRKFVQGKSIDVACHPGYALPKAQTTVTCMENGWSPTPRCIRVRKCYFPYLENGYNQNYGRKFVQGKSIDVACHPGYALPKAQTTVTCMENGWSPTPRCIRVSFTL | 15.5 | 8 | 6.3 | 12.2 | 40.1 | 43 | 3.8 | – | –
2 | rCFHT-I62 Protein (other, Purified recombinant protective CFHT (I62, Y402); also called purified recombinant CFHT-I62 protein; recombinant CFHT-I62) EDCNELPPRRNTEILTGSWSDQTYPEGTQAIYKCRPGYRSLGNIIMVCRKGEWVALNPLRKCQKRPCGHPGDTPFGTFTLTGGNVFEYGVKAVYTCNEGYQLLGEINYRECDTDGWTNDIPICEVVKCLPVTAPENGKIVSSAMEPDREYHFGQAVRFVCNSGYKIEGDEEMHCSDDGFWSKEKPKCVEISCKSPDVINGSPISQKIIYKENERFQYKCNMGYEYSERGDAVCTESGWRPLPSCEEKSCDNPYIPNGDYSPLRIKHRTGDEITYQCRNGFYPATRGNTAKCTSTGWIPAPRCTLKPCDYPDIKHGGLYHENMRRPYFPVAVGKYYSYYCDEHFETPSGSYWDHIHCTQDGWSPAVPCLRKCYFPYLENGYNQNYGRKFVQGKSIDVACHPGYALPKAQTTVTCMENGWSPTPRCIRVSFTL | – | – | – | – | – | – | – | 2.8 | 3.8
3 | CFHT.0 (pCTM297) (other, also called unmodified CFHT; protective CFHT) EDCNELPPRRNTEILTGSWSDQTYPEGTQAIYKCRPGYRSLGNIIMVCRKGEWVALNPLRKCQKRPCGHPGDTPFGTFTLTGGNVFEYGVKAVYTCNEGYQLLGEINYRECDTDGWTNDIPICEVVKCLPVTAPENGKIVSSAMEPDREYHFGQAVRFVCNSGYKIEGDEEMHCSDDGFWSKEKPKCVEISCKSPDVINGSPISQKIIYKENERFQYKCNMGYEYSERGDAVCTESGWRPLPSCEEKSCDNPYIPNGDYSPLRIKHRTGDEITYQCRNGFYPATRGNTAKCTSTGWIPAPRCTLKPCDYPDIKHGGLYHENMRRPYFPVAVGKYYSYYCDEHFETPSGSYWDHIHCTQDGWSPAVPCLRKCYFPYLENGYNQNYGRKFVQGKSIDVACHPGYALPKAQTTVTCMENGWSPTPRCIRVSFTL | – | – | – | – | – | 1.5 | – | – | –
4 | His-mCFHT.2 (pCTM460) (other, Protective CFHT with two additional C-terminal SCR7 domains; no residue range stated; HEK293 supernatant; not shown: N-terminal 6x His-TEV tag (87 bp, 29 residues by transgene size: 1791 against 1704)) EDCNELPPRRNTEILTGSWSDQTYPEGTQAIYKCRPGYRSLGNIIMVCRKGEWVALNPLRKCQKRPCGHPGDTPFGTFTLTGGNVFEYGVKAVYTCNEGYQLLGEINYRECDTDGWTNDIPICEVVKCLPVTAPENGKIVSSAMEPDREYHFGQAVRFVCNSGYKIEGDEEMHCSDDGFWSKEKPKCVEISCKSPDVINGSPISQKIIYKENERFQYKCNMGYEYSERGDAVCTESGWRPLPSCEEKSCDNPYIPNGDYSPLRIKHRTGDEITYQCRNGFYPATRGNTAKCTSTGWIPAPRCTLKPCDYPDIKHGGLYHENMRRPYFPVAVGKYYSYYCDEHFETPSGSYWDHIHCTQDGWSPAVPCLRKCYFPYLENGYNQNYGRKFVQGKSIDVACHPGYALPKAQTTVTCMENGWSPTPRCIRVRKCYFPYLENGYNQNYGRKFVQGKSIDVACHPGYALPKAQTTVTCMENGWSPTPRCIRVRKCYFPYLENGYNQNYGRKFVQGKSIDVACHPGYALPKAQTTVTCMENGWSPTPRCIRVSFTL | – | – | 49 | – | – | 99 | – | – | –
5 | His-dCFHT.0 (pCTM462) (other, Protective CFHT with the FHR-1 SCR1/2 homodimerization domain at the N-terminus ('dimer CFHT'); copies 2 follows that description, dimer state not measured; no residue range stated; also called purified recombinant dCFHT.0; not shown: 6x His-TEV tag (87 bp, 29 residues by transgene size: 1839 against 1752)) EATFCDFPKINHGILYDEEKYKPFSQVPTGEVFYYSCEYNFVSPSKSFWTRITCTEEGWSPTPKCLRLCFFPFVENGHSESSGQTHLEGDTVQIICNTGYRLQNNENNISCVERGWSTPPKCRSGGGGSGGGGSEDCNELPPRRNTEILTGSWSDQTYPEGTQAIYKCRPGYRSLGNIIMVCRKGEWVALNPLRKCQKRPCGHPGDTPFGTFTLTGGNVFEYGVKAVYTCNEGYQLLGEINYRECDTDGWTNDIPICEVVKCLPVTAPENGKIVSSAMEPDREYHFGQAVRFVCNSGYKIEGDEEMHCSDDGFWSKEKPKCVEISCKSPDVINGSPISQKIIYKENERFQYKCNMGYEYSERGDAVCTESGWRPLPSCEEKSCDNPYIPNGDYSPLRIKHRTGDEITYQCRNGFYPATRGNTAKCTSTGWIPAPRCTLKPCDYPDIKHGGLYHENMRRPYFPVAVGKYYSYYCDEHFETPSGSYWDHIHCTQDGWSPAVPCLRKCYFPYLENGYNQNYGRKFVQGKSIDVACHPGYALPKAQTTVTCMENGWSPTPRCIRVSFTL | – | – | 6.4 | 2.2 | 55.3 | 22 | 2.1 | – | –
